We go through one molecule from patent CN112048019A.

For orientation: EC50 means the concentration at which the effect is half-maximal. High values mean a less potent agent, low ones a more potent agent. One may read the Kd as the equilibrium constant for the complex coming apart. The low end stands for tighter binding, the high end for weaker binding. Usually koff stands for a measure of how fast the partners let go of each other. Low readings indicate slow dissociation, high ones fast dissociation. The kon is a measure of how fast the partners come together. Higher therefore signals faster complex formation.

Assay [1] deals with CD47 on human cells (Jurkat target cells; human peripheral blood erythrocytes) (human) (UniProt Q08722). Description: cell-based or functional assay.
The target in a further assay is 重组CD47-Fc融合蛋白 (human) (UniProt Q08722). Kind of assay: competition ELISA: CD47-Fc coated, antibody blocks binding of SIRPα-His, anti-His-HRP detection. Background: In an ELISA, binding on a coated surface is turned into a signal by an enzyme label.
Assay [2] deals with CD47蛋白 (analyte in the ForteBio assay) (human) (UniProt Q08722). Description: BLI (ForteBio), antibody captured on Protein A sensor, CD47 protein in solution at 6 concentrations. In general terms: In BLI a coated tip is dipped into the sample, and binding shifts an interference pattern.

B1: 市售抗体B6H12 (antibody, from another filing, V domains shown)
VH: EVQLVESGGDLVKPGGSLKLSCAASGFTFSGYGMSWVRQTPDKRLEWVATITSGGTYTYYPDSVKGRFTISRDNAKNTLYLQIDSLKSEDTAIYFCARSLAGNAMDYWGQGTSVTVSS
VL: DIVMTQSPATLSVTPGDRVSLSCRASQTISDYLHWYQQKSHESPRLLIKFASQSISGIPSRFSGSGSGSDFTLSINSVEPEDVGVYYCQNGHGFPRTFGGGTKLEIK
Molecule B1 showed a 吞噬率/% (macrophage phagocytosis of CFSE-labelled Jurkat cells, flow cytometry) in assay [1] of 18%. In addition, the EC50 with 重组CD47-Fc融合蛋白 (human) was 143 nM. In assay [2], this molecule showed a Kd of 7.16 nM, a koff of 0.000463 s⁻¹ and a kon of 64700 M⁻¹ s⁻¹.
